Results published in the supplement of paper PMC10065799, “High-throughput profiling of sequence recognition by tyrosine kinases and SH2 domains using bacterial peptide display” (eLife, 2023).

target: c-Src SH2; test: SH2 binding enrichment of the phosphorylated peptide, bacterial display (enrichment ratio); higher = better substrate or ligand; peptides without Tyr show the background;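 also: peptide library displayed on the E. coli surface as eCPX fusions, selected cells deep-sequenced, score is each peptide's frequency after selection divided by its frequency in the input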

| Sequence | SH2 binding enrichment |
| --- | --- |
| GLTSTYAGIRK [ROBO1_Y932] | 1.28 |
| SPGGDYAAMGA [ERBB3_Y1276_G1271S] | 1.03 |
| DTNIAYCLHPR [POMT1_Y581_W582C] | 0.609 |
| GCVSKYSGVFS [TUBGCP6_Y1624] | 0.596 |
| EADRKYEEVAR [TPM3_Y163] | 18 |
| QRALLYEDTLY [UNC13D_Y56_A59T] | 0.885 |
| IDDNEYAFLKA [HNF4A_Y286_YF] | 0.469 |
| DESEDYRDTVV [CNNM3_Y456] | 0.439 |
| FIGCIYLFLTK [GARS1_Y414_R412C_YF] | 1.33 |
| HLRAGYIIPLQ [GAA_Y822] | 1.66 |
| PVDVAYRHGYF [PLEC_Y2967_R2969H] | 0.611 |
| MSNFAYVKREV [SCN1A_Y1694] | 0.466 |
| HYGNNYRDVLQ [MACC1_Y803] | 0.568 |
| PVDTYYDSTRG [DYNC2H1_Y2231_M2227V] | 0.835 |
| ENEGTYVCIAT [ADAMTSL3_Y1365] | 0.395 |
| LQPNNYQFCGG [CSF1R_Y969] | 1.44 |
| KPMDTYYDSTR [DYNC2H1_Y2230] | 0.898 |

| Sequence | SH2 binding enrichment |
| --- | --- |
| ADDSYYTVRSA [ZAP70_Y493_A495V] | 0.874 |
| QRRLVYYEGGA [RYR1_Y245] | 1.06 |
| CTTIHYSYMCN [TP53_Y234_N235S] | 5.17 |
| MNLLGYRQVRS [CHST4_Y359_H361Q] | 0.515 |
| KLFFHYDPKLC [INSR_Y457_N458D] | 0.542 |
| RNDRVYQPLRD [CD3D_Y149_Q147R] | 0.943 |
| FMLFQYLKQIE [RPAP3_Y569_D564Y_YF] | 1.08 |
| FSLIHYAGIVV [MYH7_Y582_D587V] | 0.689 |
| PVDGEYFTLQI [TP53_Y327_L323V] | 0.512 |
| ILDEAYVMASV [EGFR_Y764] | 0.356 |
| IDGLEYLHSQG [STK11_Y166] | 0.478 |
| DGNIDYAEFAK [MCFD2_Y138_Y135N] | 0.443 |
| YSSLGYPPPEG [ZSWIM4_Y87] | 3.02 |
| ATPKGYETDAS [OTC_Y223_P225T] | 0.56 |
| ECKLRYSRKEG [PTPN11_Y263_L262R] | 0.453 |
| DGMADYSDPSY [CDC5L_Y459] | 0.459 |

tested on: AncSZ; test: phosphorylation enrichment, bacterial display (enrichment ratio); higher = better substrate or ligand; peptides without Tyr show the background;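 also: 11-residue human phosphosite peptides and single-mutation variants displayed on the E. coli surface, counted by deep sequencing, each peptide's frequency after selection divided by its frequency in the unselected input library; frequency after pTyr selection over input frequency; kinase dosed for 20-30% of maximal phosphorylation in three min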

| Sequence | phosphorylation enrichment |
| --- | --- |
| GLTSTYAGIRK [ROBO1_Y932] | 0.525 |
| SPGGDYAAMGA [ERBB3_Y1276_G1271S] | 0.7 |
| DTNIAYCLHPR [POMT1_Y581_W582C] | 0.831 |
| GCVSKYSGVFS [TUBGCP6_Y1624] | 0.815 |
| EADRKYEEVAR [TPM3_Y163] | 1.29 |
| QRALLYEDTLY [UNC13D_Y56_A59T] | 1.54 |
| IDDNEYAFLKA [HNF4A_Y286_YF] | 1.54 |
| DESEDYRDTVV [CNNM3_Y456] | 1.46 |
| FIGCIYLFLTK [GARS1_Y414_R412C_YF] | 0.803 |
| HLRAGYIIPLQ [GAA_Y822] | 0.668 |
| PVDVAYRHGYF [PLEC_Y2967_R2969H] | 1.71 |
| MSNFAYVKREV [SCN1A_Y1694] | 0.729 |
| HYGNNYRDVLQ [MACC1_Y803] | 0.622 |
| PVDTYYDSTRG [DYNC2H1_Y2231_M2227V] | 1.18 |
| ENEGTYVCIAT [ADAMTSL3_Y1365] | 1.46 |
| LQPNNYQFCGG [CSF1R_Y969] | 1.49 |
| KPMDTYYDSTR [DYNC2H1_Y2230] | 0.874 |

| Sequence | phosphorylation enrichment |
| --- | --- |
| ADDSYYTVRSA [ZAP70_Y493_A495V] | 1.56 |
| QRRLVYYEGGA [RYR1_Y245] | 0.788 |
| CTTIHYSYMCN [TP53_Y234_N235S] | 0.897 |
| MNLLGYRQVRS [CHST4_Y359_H361Q] | 0.693 |
| KLFFHYDPKLC [INSR_Y457_N458D] | 1.01 |
| RNDRVYQPLRD [CD3D_Y149_Q147R] | 0.604 |
| FMLFQYLKQIE [RPAP3_Y569_D564Y_YF] | 1.12 |
| FSLIHYAGIVV [MYH7_Y582_D587V] | 1.13 |
| PVDGEYFTLQI [TP53_Y327_L323V] | 4.07 |
| ILDEAYVMASV [EGFR_Y764] | 1.16 |
| IDGLEYLHSQG [STK11_Y166] | 0.737 |
| DGNIDYAEFAK [MCFD2_Y138_Y135N] | 1.24 |
| YSSLGYPPPEG [ZSWIM4_Y87] | 0.741 |
| ATPKGYETDAS [OTC_Y223_P225T] | 0.735 |
| ECKLRYSRKEG [PTPN11_Y263_L262R] | 0.527 |
| DGMADYSDPSY [CDC5L_Y459] | 1.43 |
